From the supplement of paper PMC11811203

B1: THAP1; numbered along this chain (parent)
chain: MVQSCSAYGCKNRYDKDKPVSFHKFPLTRPSLCKEWEAAVRRKNFKPTKYSSICSEHFTPDCFKRECNNKLLKENAVPTIFLCTEPHDKKEDLLEPQEQLPPPPLPPPVSQVDAAIGLLMPPLQTPVNLSVFCDHNYTVEDTMHQRKRIHQLEQQVEKLRKKLKTAQQRCRRQERQLEKLKEVVHFQKEKDDVSERGYVILPNDYFEIVEVPA

Variants of: B1
Assay: THAP1 transcriptional activity (GFP+/GFP- enrichment relative to wild-type constructs) (ratio to WT); higher = more THAP1 activity (PSMB5 reporter activation)
Conditions: with PSMB5 promoter-GFP reporter
Method in brief: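 A lentiviral site-saturation library covering residues 2–213 of human THAP1, with each position changed to all 20 amino acids, was transduced in duplicate at MOI ~0.3 into THAP1-knockout HEK-293T cells with mClover3 knocked in at endogenous PSMB5. Five days later, BFP+ cells were sorted into GFP-dim and GFP-bright bins and variants were counted by Illumina sequencing of genomic DNA amplicons. Activity is the bright/dim read fold change averaged over replicates and divided by the mean of wild-type synonymous constructs.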

Going from MVQSCSAYGCKNRYDKDKPVSFHKFPLTRPSLCKEWEAAVRRKNFKPTKYSSICSEHFTPDCFKRECNNKLLKENAVPTIFLCTEPHDKKEDLLEPQEQLPPPPLPPPVSQVDAAIGLLMPPLQTPVNLSVFCDGNYTVEDTMHQRKRIHQLEQQVEKLRKKLKTAQQRCRRQERQLEKLKEVVHFQKEKDDVSERGYVILPNDYFEIVEVPA [H135G] to MVQSCSAYGCKNRYDKDKPVSFHKFPLTRPSLCKEWEAAVRRKNFKPTKYSSICSEHFTPDCFKRECNNKLLKENAVPTIFLCTEPHDKKEDLLEPQEQLPPPPLPPPVSQVDAAIGLLMPPLQTPVNLSVFCDANYTVEDTMHQRKRIHQLEQQVEKLRKKLKTAQQRCRRQERQLEKLKEVVHFQKEKDDVSERGYVILPNDYFEIVEVPA [H135A], the THAP1 transcriptional activity falls from 0.152 to 0.145.

Going from MVQSCSAYGCKNRYDKDKPVSFHKFPLTRPSLCKEWEAAVRRKNFKPTKYSSICSEHFTPDCFKRECNNKLLKENAVPTIFLCTEPHDKKEDLLEPQEQLPPPPLPPPVSQVDAAIGLLMPPLQTPVNLSVFCDMNYTVEDTMHQRKRIHQLEQQVEKLRKKLKTAQQRCRRQERQLEKLKEVVHFQKEKDDVSERGYVILPNDYFEIVEVPA [H135M] to MVQSCSAYGCKNRYDKDKPVSFHKFPLTRPSLCKEWEAAVRRKNFKPTKYSSICSEHFTPDCFKRECNNKLLKENAVPTIFLCTEPHDKKEDLLEPQEQLPPPPLPPPVSQVDAAIGLLMPPLQTPVNLSVFCDTNYTVEDTMHQRKRIHQLEQQVEKLRKKLKTAQQRCRRQERQLEKLKEVVHFQKEKDDVSERGYVILPNDYFEIVEVPA [H135T], the THAP1 transcriptional activity rises from 0.0946 to 0.111.

Compared with MVQSCSAYGCKNRYDKDKPVSFHKFPLTRPSLCKEWEAAVRRKNFKPTKYSSICSEHFTPDCFKRECNNKLLKENAVPTIFLCTEPHDKKEDLLEPQEQLPPPPLPPPVSQVDAAIGLLMPPLQTPVNLSVFCDDNYTVEDTMHQRKRIHQLEQQVEKLRKKLKTAQQRCRRQERQLEKLKEVVHFQKEKDDVSERGYVILPNDYFEIVEVPA [H135D], MVQSCSAYGCKNRYDKDKPVSFHKFPLTRPSLCKEWEAAVRRKNFKPTKYSSICSEHFTPDCFKRECNNKLLKENAVPTIFLCTEPHDKKEDLLEPQEQLPPPPLPPPVSQVDAAIGLLMPPLQTPVNLSVFCDNNYTVEDTMHQRKRIHQLEQQVEKLRKKLKTAQQRCRRQERQLEKLKEVVHFQKEKDDVSERGYVILPNDYFEIVEVPA [H135N] is lower in THAP1 transcriptional activity: 0.195 for the first, 0.183 for the second.

Going from MVQSCSAYGCKNRYDKDKPVSFHKFPLTRPSLCKEWEAAVRRKNFKPTKYSSICSEHFTPDCFKRECNNKLLKENAVPTIFLCTEPHDKKEDLLEPQEQLPPPPLPPPVSQVDAAIGLLMPPLQTPVNLSVFCDLNYTVEDTMHQRKRIHQLEQQVEKLRKKLKTAQQRCRRQERQLEKLKEVVHFQKEKDDVSERGYVILPNDYFEIVEVPA [H135L] to MVQSCSAYGCKNRYDKDKPVSFHKFPLTRPSLCKEWEAAVRRKNFKPTKYSSICSEHFTPDCFKRECNNKLLKENAVPTIFLCTEPHDKKEDLLEPQEQLPPPPLPPPVSQVDAAIGLLMPPLQTPVNLSVFCDSNYTVEDTMHQRKRIHQLEQQVEKLRKKLKTAQQRCRRQERQLEKLKEVVHFQKEKDDVSERGYVILPNDYFEIVEVPA [H135S], the THAP1 transcriptional activity rises from 0.0852 to 0.182.

First: MVQSCSAYGCKNRYDKDKPVSFHKFPLTRPSLCKEWEAAVRRKNFKPTKYSSICSEHFTPDCFKRECNNKLLKENAVPTIFLCTEPHDKKEDLLEPQEQLPPPPLPPPVSQVDAAIGLLMPPLQTPVNLSVFCDRNYTVEDTMHQRKRIHQLEQQVEKLRKKLKTAQQRCRRQERQLEKLKEVVHFQKEKDDVSERGYVILPNDYFEIVEVPA [H135R]
Second: MVQSCSAYGCKNRYDKDKPVSFHKFPLTRPSLCKEWEAAVRRKNFKPTKYSSICSEHFTPDCFKRECNNKLLKENAVPTIFLCTEPHDKKEDLLEPQEQLPPPPLPPPVSQVDAAIGLLMPPLQTPVNLSVFCDFNYTVEDTMHQRKRIHQLEQQVEKLRKKLKTAQQRCRRQERQLEKLKEVVHFQKEKDDVSERGYVILPNDYFEIVEVPA [H135F]
The THAP1 transcriptional activity of the first is lower: 0.0891 for the first, 0.196 for the second.

Compared with MVQSCSAYGCKNRYDKDKPVSFHKFPLTRPSLCKEWEAAVRRKNFKPTKYSSICSEHFTPDCFKRECNNKLLKENAVPTIFLCTEPHDKKEDLLEPQEQLPPPPLPPPVSQVDAAIGLLMPPLQTPVNLSVFCDQNYTVEDTMHQRKRIHQLEQQVEKLRKKLKTAQQRCRRQERQLEKLKEVVHFQKEKDDVSERGYVILPNDYFEIVEVPA [H135Q], MVQSCSAYGCKNRYDKDKPVSFHKFPLTRPSLCKEWEAAVRRKNFKPTKYSSICSEHFTPDCFKRECNNKLLKENAVPTIFLCTEPHDKKEDLLEPQEQLPPPPLPPPVSQVDAAIGLLMPPLQTPVNLSVFCDENYTVEDTMHQRKRIHQLEQQVEKLRKKLKTAQQRCRRQERQLEKLKEVVHFQKEKDDVSERGYVILPNDYFEIVEVPA [H135E] is higher in THAP1 transcriptional activity: 0.151 for the first, 0.396 for the second.

Compared with MVQSCSAYGCKNRYDKDKPVSFHKFPLTRPSLCKEWEAAVRRKNFKPTKYSSICSEHFTPDCFKRECNNKLLKENAVPTIFLCTEPHDKKEDLLEPQEQLPPPPLPPPVSQVDAAIGLLMPPLQTPVNLSVFCDWNYTVEDTMHQRKRIHQLEQQVEKLRKKLKTAQQRCRRQERQLEKLKEVVHFQKEKDDVSERGYVILPNDYFEIVEVPA [H135W], MVQSCSAYGCKNRYDKDKPVSFHKFPLTRPSLCKEWEAAVRRKNFKPTKYSSICSEHFTPDCFKRECNNKLLKENAVPTIFLCTEPHDKKEDLLEPQEQLPPPPLPPPVSQVDAAIGLLMPPLQTPVNLSVFCDYNYTVEDTMHQRKRIHQLEQQVEKLRKKLKTAQQRCRRQERQLEKLKEVVHFQKEKDDVSERGYVILPNDYFEIVEVPA [H135Y] is higher in THAP1 transcriptional activity: 0.177 for the first, 0.217 for the second.

Going from MVQSCSAYGCKNRYDKDKPVSFHKFPLTRPSLCKEWEAAVRRKNFKPTKYSSICSEHFTPDCFKRECNNKLLKENAVPTIFLCTEPHDKKEDLLEPQEQLPPPPLPPPVSQVDAAIGLLMPPLQTPVNLSVFCDCNYTVEDTMHQRKRIHQLEQQVEKLRKKLKTAQQRCRRQERQLEKLKEVVHFQKEKDDVSERGYVILPNDYFEIVEVPA [H135C] to MVQSCSAYGCKNRYDKDKPVSFHKFPLTRPSLCKEWEAAVRRKNFKPTKYSSICSEHFTPDCFKRECNNKLLKENAVPTIFLCTEPHDKKEDLLEPQEQLPPPPLPPPVSQVDAAIGLLMPPLQTPVNLSVFCDPNYTVEDTMHQRKRIHQLEQQVEKLRKKLKTAQQRCRRQERQLEKLKEVVHFQKEKDDVSERGYVILPNDYFEIVEVPA [H135P], the THAP1 transcriptional activity rises from 0.22 to 0.31.

First: MVQSCSAYGCKNRYDKDKPVSFHKFPLTRPSLCKEWEAAVRRKNFKPTKYSSICSEHFTPDCFKRECNNKLLKENAVPTIFLCTEPHDKKEDLLEPQEQLPPPPLPPPVSQVDAAIGLLMPPLQTPVNLSVFCDINYTVEDTMHQRKRIHQLEQQVEKLRKKLKTAQQRCRRQERQLEKLKEVVHFQKEKDDVSERGYVILPNDYFEIVEVPA [H135I]
Second: MVQSCSAYGCKNRYDKDKPVSFHKFPLTRPSLCKEWEAAVRRKNFKPTKYSSICSEHFTPDCFKRECNNKLLKENAVPTIFLCTEPHDKKEDLLEPQEQLPPPPLPPPVSQVDAAIGLLMPPLQTPVNLSVFCDVNYTVEDTMHQRKRIHQLEQQVEKLRKKLKTAQQRCRRQERQLEKLKEVVHFQKEKDDVSERGYVILPNDYFEIVEVPA [H135V]
The THAP1 transcriptional activity of the first is lower: 0.146 for the first, 0.227 for the second.

First: MVQSCSAYGCKNRYDKDKPVSFHKFPLTRPSLCKEWEAAVRRKNFKPTKYSSICSEHFTPDCFKRECNNKLLKENAVPTIFLCTEPHDKKEDLLEPQEQLPPPPLPPPVSQVDAAIGLLMPPLQTPVNLSVFCYHNYTVEDTMHQRKRIHQLEQQVEKLRKKLKTAQQRCRRQERQLEKLKEVVHFQKEKDDVSERGYVILPNDYFEIVEVPA [D134Y]
Second: MVQSCSAYGCKNRYDKDKPVSFHKFPLTRPSLCKEWEAAVRRKNFKPTKYSSICSEHFTPDCFKRECNNKLLKENAVPTIFLCTEPHDKKEDLLEPQEQLPPPPLPPPVSQVDAAIGLLMPPLQTPVNLSVFCDHDYTVEDTMHQRKRIHQLEQQVEKLRKKLKTAQQRCRRQERQLEKLKEVVHFQKEKDDVSERGYVILPNDYFEIVEVPA [N136D]
The THAP1 transcriptional activity of the first is higher: 0.166 for the first, 0.153 for the second.

Going from MVQSCSAYGCKNRYDKDKPVSFHKFPLTRPSLCKEWEAAVRRKNFKPTKYSSICSEHFTPDCFKRECNNKLLKENAVPTIFLCTEPHDKKEDLLEPQEQLPPPPLPPPVSQVDAAIGLLMPPLQTPVNLSVFCDHCYTVEDTMHQRKRIHQLEQQVEKLRKKLKTAQQRCRRQERQLEKLKEVVHFQKEKDDVSERGYVILPNDYFEIVEVPA [N136C] to MVQSCSAYGCKNRYDKDKPVSFHKFPLTRPSLCKEWEAAVRRKNFKPTKYSSICSEHFTPDCFKRECNNKLLKENAVPTIFLCTEPHDKKEDLLEPQEQLPPPPLPPPVSQVDAAIGLLMPPLQTPVNLSVFCDHFYTVEDTMHQRKRIHQLEQQVEKLRKKLKTAQQRCRRQERQLEKLKEVVHFQKEKDDVSERGYVILPNDYFEIVEVPA [N136F], the THAP1 transcriptional activity rises from 0.164 to 0.279.

Going from MVQSCSAYGCKNRYDKDKPVSFHKFPLTRPSLCKEWEAAVRRKNFKPTKYSSICSEHFTPDCFKRECNNKLLKENAVPTIFLCTEPHDKKEDLLEPQEQLPPPPLPPPVSQVDAAIGLLMPPLQTPVNLSVFCDHEYTVEDTMHQRKRIHQLEQQVEKLRKKLKTAQQRCRRQERQLEKLKEVVHFQKEKDDVSERGYVILPNDYFEIVEVPA [N136E] to MVQSCSAYGCKNRYDKDKPVSFHKFPLTRPSLCKEWEAAVRRKNFKPTKYSSICSEHFTPDCFKRECNNKLLKENAVPTIFLCTEPHDKKEDLLEPQEQLPPPPLPPPVSQVDAAIGLLMPPLQTPVNLSVFCDHAYTVEDTMHQRKRIHQLEQQVEKLRKKLKTAQQRCRRQERQLEKLKEVVHFQKEKDDVSERGYVILPNDYFEIVEVPA [N136A], the THAP1 transcriptional activity rises from 0.14 to 0.208.

Going from MVQSCSAYGCKNRYDKDKPVSFHKFPLTRPSLCKEWEAAVRRKNFKPTKYSSICSEHFTPDCFKRECNNKLLKENAVPTIFLCTEPHDKKEDLLEPQEQLPPPPLPPPVSQVDAAIGLLMPPLQTPVNLSVFCDHHYTVEDTMHQRKRIHQLEQQVEKLRKKLKTAQQRCRRQERQLEKLKEVVHFQKEKDDVSERGYVILPNDYFEIVEVPA [N136H] to MVQSCSAYGCKNRYDKDKPVSFHKFPLTRPSLCKEWEAAVRRKNFKPTKYSSICSEHFTPDCFKRECNNKLLKENAVPTIFLCTEPHDKKEDLLEPQEQLPPPPLPPPVSQVDAAIGLLMPPLQTPVNLSVFCDHKYTVEDTMHQRKRIHQLEQQVEKLRKKLKTAQQRCRRQERQLEKLKEVVHFQKEKDDVSERGYVILPNDYFEIVEVPA [N136K], the THAP1 transcriptional activity rises from 0.131 to 0.142.

Going from MVQSCSAYGCKNRYDKDKPVSFHKFPLTRPSLCKEWEAAVRRKNFKPTKYSSICSEHFTPDCFKRECNNKLLKENAVPTIFLCTEPHDKKEDLLEPQEQLPPPPLPPPVSQVDAAIGLLMPPLQTPVNLSVFCDHIYTVEDTMHQRKRIHQLEQQVEKLRKKLKTAQQRCRRQERQLEKLKEVVHFQKEKDDVSERGYVILPNDYFEIVEVPA [N136I] to MVQSCSAYGCKNRYDKDKPVSFHKFPLTRPSLCKEWEAAVRRKNFKPTKYSSICSEHFTPDCFKRECNNKLLKENAVPTIFLCTEPHDKKEDLLEPQEQLPPPPLPPPVSQVDAAIGLLMPPLQTPVNLSVFCDHGYTVEDTMHQRKRIHQLEQQVEKLRKKLKTAQQRCRRQERQLEKLKEVVHFQKEKDDVSERGYVILPNDYFEIVEVPA [N136G], the THAP1 transcriptional activity falls from 0.149 to 0.109.
